Laboratory results reported in US20240325562A1, “INTERNALIZING BINDING MOLECULES” (LinXis B.V., priority 2020, published 2024).

What was measured:
[1] = system: SCC-rPGDFRB cells; test: Kinetic internalization assay on SCC-rPGDFRB cells; format: cell-based; details: IRDye800 conjugates, cells expressing rat PDGFRB
Experimental: (§1) The rate of internalization (endocytic rate constant, ke) of biparatopic constructs 13F11-13E8 and 13E8-13F11 was determined with a kinetic internalization assay on SCC-hIGF2R and SCC-rIGF2R cells. Briefly, 10 nM of IRD800CW conjugated 13F11-13E8 or 13E8-13F11 (conjugation method as described in example 10.2) was added to hIGF2R expressing SCC cells or rIGF2R expressing SCC cells and incubated at 37° C. for different time points up to 12 minutes. Internalization was then purposely halted by putting the cells on ice. Subsequently, cells were washed with cold PBS and the non-internalized VHH construct (bound fraction) was separated from the internalized construct (internalized fraction) using an acid-wash, as described above, after which the fluorescence of both fractions were measured. Both constructs internalize with similar endocytic rate constants in SCC-hIGF2R cells (ke around 1.5 min-1) and in SCC-rIGF2R cells (ke around 0.7 min-1) (FIGS. 17A and B, respectively).
To confirm improved internalization of biparatopic VHH constructs compared to the monomeric individual VHH components, kinetic internalization assays were performed using SCC-rPGDFRB and on SCC-hPDGFRB cells, using a similar method as described for the IGF2R constructs in example 11.1. […]

[2] = system: SCC-hPDGFRB cells; test: Kinetic internalization assay on SCC-hPDGFRB cells; format: cell-based, human
Experimental: as §1
To determine the rate of internalization of the VHH construct SP02P-SP26P, kinetic internalization assays on hPDGFRB expressing SCC cells and LX-2 cells were performed using a similar method as described for the IGF2R constructs in example 11.1. […]

[3] = system: LX-2 cells; test: Kinetic internalization assay on LX-2 cells; format: cell-based, human; details: FIG. 19 right panel
Experimental: as §1
To determine the rate of internalization of the VHH construct SP02P-SP26P, kinetic internalization assays on hPDGFRB expressing SCC cells and LX-2 cells were performed using a similar method as described for the IGF2R constructs in example 11.1.

[4] = target: T1, murine PDGFRB ectodomain (mPDGFRB-ECD) (Mus musculus, UniProt P05622); test: Binding assay on murine PDGFRB ectodomain; details: IRDye800-conjugated, FIG. 15D
T1 construct: varied across murine PDGFRB ectodomain (mPDGFRB-ECD), rPDGFRB-ECD and hPDGFRB-ECD
T1 sequence (P05622 32-531 limits assumed): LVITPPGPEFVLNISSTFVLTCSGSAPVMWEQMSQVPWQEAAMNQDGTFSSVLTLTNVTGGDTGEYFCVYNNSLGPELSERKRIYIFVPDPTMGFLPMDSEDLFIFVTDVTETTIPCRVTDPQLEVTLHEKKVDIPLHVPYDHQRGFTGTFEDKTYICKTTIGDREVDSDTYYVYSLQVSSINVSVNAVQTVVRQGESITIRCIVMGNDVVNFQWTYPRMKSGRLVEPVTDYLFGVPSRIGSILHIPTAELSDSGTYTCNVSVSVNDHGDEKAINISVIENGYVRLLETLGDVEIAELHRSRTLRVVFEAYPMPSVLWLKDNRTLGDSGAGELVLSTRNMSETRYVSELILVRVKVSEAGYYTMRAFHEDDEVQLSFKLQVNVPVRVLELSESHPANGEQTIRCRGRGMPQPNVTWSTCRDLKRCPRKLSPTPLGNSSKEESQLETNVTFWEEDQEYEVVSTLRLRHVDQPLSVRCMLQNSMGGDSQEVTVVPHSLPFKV

[5] = target: hPDGFRB-ECD (Homo sapiens, UniProt P09619); test: Binding assay on hPDGFRB-ECD; details: IRDye800-conjugated, FIG. 15D
Sequence of hPDGFRB-ECD (P09619 33-532 limits assumed): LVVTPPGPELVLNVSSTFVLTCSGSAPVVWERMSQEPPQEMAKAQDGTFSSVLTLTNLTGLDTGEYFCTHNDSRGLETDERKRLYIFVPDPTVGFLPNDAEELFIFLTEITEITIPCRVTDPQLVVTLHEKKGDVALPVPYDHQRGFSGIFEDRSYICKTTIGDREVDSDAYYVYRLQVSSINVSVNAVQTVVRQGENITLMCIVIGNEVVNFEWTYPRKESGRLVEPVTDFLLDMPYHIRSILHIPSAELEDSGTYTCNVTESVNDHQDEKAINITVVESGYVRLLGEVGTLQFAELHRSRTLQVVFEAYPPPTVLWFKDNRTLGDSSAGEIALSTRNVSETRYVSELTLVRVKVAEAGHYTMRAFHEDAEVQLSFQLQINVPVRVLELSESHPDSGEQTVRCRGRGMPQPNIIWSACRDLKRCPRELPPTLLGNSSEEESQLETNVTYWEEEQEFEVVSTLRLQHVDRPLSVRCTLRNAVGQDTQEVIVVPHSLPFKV
Experimental: The 15 unique hIGF2R-binding VHH (Example 2.1, FIG. 2) were produced and purified as described in examples 3 and 4. The apparent affinities were determined through binding assay on immobilized hIGF2R-ECD. Briefly, three-fold serial dilution series, starting from 1 μM, of each VHH were plated onto hIGF2R-ECD coated plates. VHH were allowed to bind for two hours after which plates were washed. Then, bound VHH was detected using a VHH-specific IgG antibody, followed by an IRD800CW-conjugated IgG-specific antibody. Plates were read out by fluorimetry.
(§2) The 18 unique hPDGFRB binders from libraries 1 and 2, and the 11 unique rPDGFRB binders from libraries 3 and 4 (Example 2.2, FIGS. 5 and 6) were produced and purified as described in examples 3 and 4. Then, the apparent affinities were determined with binding assays on hPDGFRB-ECD and rPDGFRB-ECD, respectively, the setup described in example 5.1. Results are summarized in FIGS. 5 and 6 for the hPDGFRB and rPDGFRB VHHs, respectively.
Based on their high affinity and binding to non-overlapping hPDGRB epitopes, various biparatopic constructs were prepared based on VHHs SP02P, SP12P SP14P, SP26P and SP28P. The constructs were produced as described in example 7.1. and subjected to binding assay.
As Shown in FIG. 15C), the binding affinity of this construct for both hPDGFRB and rPDGFRB are below 5 nM. […]

[6] = target: T2, rPDGFRB-ECD (Rattus norvegicus, UniProt Q05030); test: Binding assay on rPDGFRB-ECD; details: IRDye800-conjugated, FIG. 15D
T2 sequence (Q05030 32-531 limits assumed): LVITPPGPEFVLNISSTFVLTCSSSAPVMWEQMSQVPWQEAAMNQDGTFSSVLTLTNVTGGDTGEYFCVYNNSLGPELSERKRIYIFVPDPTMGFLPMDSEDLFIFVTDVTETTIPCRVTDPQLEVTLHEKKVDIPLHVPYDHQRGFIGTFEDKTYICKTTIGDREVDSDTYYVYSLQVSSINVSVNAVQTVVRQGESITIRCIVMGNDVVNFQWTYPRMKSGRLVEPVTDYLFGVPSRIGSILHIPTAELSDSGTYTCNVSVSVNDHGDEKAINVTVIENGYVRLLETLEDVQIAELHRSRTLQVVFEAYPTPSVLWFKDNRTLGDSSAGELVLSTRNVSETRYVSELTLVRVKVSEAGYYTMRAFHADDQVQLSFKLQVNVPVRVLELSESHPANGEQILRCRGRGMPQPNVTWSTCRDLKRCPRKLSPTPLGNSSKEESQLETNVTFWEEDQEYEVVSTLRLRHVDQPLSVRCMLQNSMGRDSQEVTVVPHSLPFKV
Experimental: as §2
As Shown in FIG. 15C), the binding affinity of this construct for both hPDGFRB and rPDGFRB are below 5 nM. […] These observations make SP02P (or similar VHH) and SP26P (or similar VHH) particularly promising for use in the present invention.

B1: SP02P-SP26P: biparatopic PDGFRB VHH construct combining SP02P and SP26P (protein)
chain: EVQLVESGGGLVQAGGSLRLSCAASESISSIEQMGWFRQAPGKQRALVAINTYGGRTVYTNSVEGRFTMSRDSAKNMVYLQMTSLEPEDTAVYYCYAQTTAWRGGVWGQGTQVTVSSGGGGSGGGGSGGGGSEVQLVESGGGLVQAGGSLRLSCAASGRSFSSSVMGWFRQTPGKEREFVAATRWTAASTHYADSVKGRFTISRDHAENAVFLQMNSLKPEDTAVYYCAAGNYLDTAQYRYNYWGQGTQVTVSS
modifications: left off: small tags and cut ends
internalization rate compared to monomeric VHH SP02 and SP26 [1]: 5-10 fold | internalization ([2]; FIG. 19 left panel): observed | internalization rate compared to monomeric VHH SP02 and SP26 ([2]; IRDye800 conjugates, cells expressing human PDGFRB): 5-10 fold | internalization [3]: observed | affinity for mPDGFRB-ECD [4]: high affinity | affinity for hPDGFRB-ECD [5]: high affinity | affinity for rPDGFRB-ECD [6]: high affinity
